For two proteins, Km results are on record in ChEMBL document CHEMBL2074012, “Multidrug resistance protein (MRP) 1 and MRP3 attenuate cytotoxic and transactivating effects of the cyclopentenone prostaglandin, 15-deoxy-Delta(12,14)prostaglandin J2 in MCF7 breast cancer cells” (Biochemistry, 2003).

Common to all, as to type: functional, cell-based
Substrate in data set [1]: N[C@@H](CCC(=O)N[C@H](CSCCCCC/C=C/C=C1/C(=O)C=C[C@@H]1C/C=C\CCCC(=O)O)C(=O)NCC(=O)O)C(=O)O
The data set can be described thus: (§1) TP_TRANSPORTER: uptake in MRP3-expressing MCF7 cells.

Substrate in data set [2]: CN(Cc1cnc2nc(N)nc(N)c2n1)c1ccc(C(=O)N[C@@H](CCC(=O)O)C(=O)O)cc1
The description is as §1.

Substrate in data set [3]: N[C@@H](CCC(=O)N[C@H](CSCCCCC/C=C/C=C1/C(=O)C=C[C@@H]1C/C=C\CCCC(=O)O)C(=O)NCC(=O)O)C(=O)O
The experiment in a line: (§2) TP_TRANSPORTER: uptake in MRP1-expressing MCF7 cells.

Substrate in data set [4]: CN(Cc1cnc2nc(N)nc(N)c2n1)c1ccc(C(=O)N[C@@H](CCC(=O)O)C(=O)O)cc1
The description is as §2.

B1: Multidrug resistance associated protein (Homo sapiens), Q96QA9 (protein)
chain: MDALCGSGELGSKFWDSNLSVHTENPDLTPCFQNSLLAWVPCIYLWVALPCYLLYLRHHCRGYIILSHLSKLKMVLGVLLWCVSWADLFYSFHGLVHGRAPAPVFFVTPLVVGVTMLLATLLIQYERLQGVQSSGVLIIFWFLCVVCAIVPFRSKILLAKAEGEISDPFRFTTFYIHFALVLSALILACFREKPPFFSAKNVDPNPYPETSAGFLSRLFFWWFTKMAIYGYRHPLEEKDLWSLKEEDRSQMVVQQLLEAWRKQEKQTARHKASAAPGKNASGEDEVLLGARPRPRKPSFLKALLATFGSSFLISACFKLIQDLLSFINPQLLSILIRFISNPMAPSWWGFLVAGLMFLCSMMQSLILQHYYHYIFVTGVKFRTGIMGVIYRKALVITNSVKRASTVGEIVNLMSVDAQRFMDLAPFLNLLWSAPLQIILAIYFLWQNLGPSVLAGVAFMVLLIPLNGAVAVKMRAFQVKQMKLKDSRIKLMSEILNGIKVLKLYAWEPSFLKQVEGIRQGELQLLRTAAYLHTTTTFTWMCSPFLVTLITLWVYVYVDPNNVLDAEKAFVSVSLFNILRLPLNMLPQLISNLTQASVSLKRIQQFLSQEELDPQSVERKTISPGYAITIHSGTFTWAQDLPPTLHSLDIQVPKGALVAVVGPVGCGKSSLVSALLGEMEKLEGKVHMKGSVAYVPQQAWIQNCTLQENVLFGKALNPKRYQQTLEACALLADLEMLPGGDQTEIGEKGINLSGGQRQRVSLARAVYSDADIFLLDDPLSAVDSHVAKHIFDHVIGPEGVLAGKTRVLVTHGISFLPQTDFIIVLADGQVSEMGPYPALLQRNGSFANFLCNYAPDEDQGHLEDSWTALEGAEDKEALLIEDTLSNHTDLTDNDPVTYVVQKQFMRQLSALSSDGEGQGRPVPRRHLGPSEKVQVTEAKADGALTQEEKAAIGTVELSVFWDYAKAVGLCTTLAICLLYVGQSAAAIGANVWLSAWTNDAMADSRQNNTSLRLGVYAALGILQGFLVMLAAMAMAAGGIQAARVLHQALLHNKIRSPQSFFDTTPSGRILNCFSKDIYVVDEVLAPVILMLLNSFFNAISTLVVIMASTPLFTVVILPLAVLYTLVQRFYAATSRQLKRLESVSRSPIYSHFSETVTGASVIRAYNRSRDFEIISDTKVDANQRSCYPYIISNRWLSIGVEFVGNCVVLFAALFAVIGRSSLNPGLVGLSVSYSLQVTFALNWMIRMMSDLESNIVAVERVKEYSKTETEAPWVVEGSRPPEGWPPRGEVEFRNYSVRYRPGLDLVLRDLSLHVHGGEKVGIVGRTGAGKSSMTLCLFRILEAAKGEIRIDGLNVADIGDPILFSGTLRMNLDPFGSYSEEDIWWALELSHLHTFVSSQPAGLDFQCSEGGENLSVGQRQLVCLARALLRKSRILVLDEATAAIDLETDNLIQATIRTQFDTCTVLTIAHRLNTIMDYTRVLVLDKGVVAEFDSPANLIAARGIFYGMARDAGLA
What is called Km is the substrate concentration at which the rate is half of its maximum. For B1, the results for the Km in data set [1] and in data set [2] were 2.9 µM and 910 µM, respectively.

B2: Multidrug resistance-associated protein 1 (Homo sapiens) (protein)
chain: MALRGFCSADGSDPLWDWNVTWNTSNPDFTKCFQNTVLVWVPCFYLWACFPFYFLYLSRHDRGYIQMTPLNKTKTALGFLLWIVCWADLFYSFWERSRGIFLAPVFLVSPTLLGITMLLATFLIQLERRKGVQSSGIMLTFWLVALVCALAILRSKIMTALKEDAQVDLFRDITFYVYFSLLLIQLVLSCFSDRSPLFSETIHDPNPCPESSASFLSRITFWWITGLIVRGYRQPLEGSDLWSLNKEDTSEQVVPVLVKNWKKECAKTRKQPVKVVYSSKDPAQPKESSKVDANEEVEALIVKSPQKEWNPSLFKVLYKTFGPYFLMSFFFKAIHDLMMFSGPQILKLLIKFVNDTKAPDWQGYFYTVLLFVTACLQTLVLHQYFHICFVSGMRIKTAVIGAVYRKALVITNSARKSSTVGEIVNLMSVDAQRFMDLATYINMIWSAPLQVILALYLLWLNLGPSVLAGVAVMVLMVPVNAVMAMKTKTYQVAHMKSKDNRIKLMNEILNGIKVLKLYAWELAFKDKVLAIRQEELKVLKKSAYLSAVGTFTWVCTPFLVALCTFAVYVTIDENNILDAQTAFVSLALFNILRFPLNILPMVISSIVQASVSLKRLRIFLSHEELEPDSIERRPVKDGGGTNSITVRNATFTWARSDPPTLNGITFSIPEGALVAVVGQVGCGKSSLLSALLAEMDKVEGHVAIKGSVAYVPQQAWIQNDSLRENILFGCQLEEPYYRSVIQACALLPDLEILPSGDRTEIGEKGVNLSGGQKQRVSLARAVYSNADIYLFDDPLSAVDAHVGKHIFENVIGPKGMLKNKTRILVTHSMSYLPQVDVIIVMSGGKISEMGSYQELLARDGAFAEFLRTYASTEQEQDAEENGVTGVSGPGKEAKQMENGMLVTDSAGKQLQRQLSSSSSYSGDISRHHNSTAELQKAEAKKEETWKLMEADKAQTGQVKLSVYWDYMKAIGLFISFLSIFLFMCNHVSALASNYWLSLWTDDPIVNGTQEHTKVRLSVYGALGISQGIAVFGYSMAVSIGGILASRCLHVDLLHSILRSPMSFFERTPSGNLVNRFSKELDTVDSMIPEVIKMFMGSLFNVIGACIVILLATPIAAIIIPPLGLIYFFVQRFYVASSRQLKRLESVSRSPVYSHFNETLLGVSVIRAFEEQERFIHQSDLKVDENQKAYYPSIVANRWLAVRLECVGNCIVLFAALFAVISRHSLSAGLVGLSVSYSLQVTTYLNWLVRMSSEMETNIVAVERLKEYSETEKEAPWQIQETAPPSSWPQVGRVEFRNYCLRYREDLDFVLRHINVTINGGEKVGIVGRTGAGKSSLTLGLFRINESAEGEIIIDGINIAKIGLHDLRFKITIIPQDPVLFSGSLRMNLDPFSQYSDEEVWTSLELAHLKDFVSALPDKLDHECAEGGENLSVGQRQLVCLARALLRKTKILVLDEATAAVDLETDDLIQSTIRTQFEDCTVLTIAHRLNTIMDYTRVIVLDKGEIQEYGAPSDLLQQRGLFYSMAKDAGLV
As for B2, the values for the Michaelis-Menten constant (Km) in data set [3] and in data set [4] were 1.4 µM and 930 µM, respectively.
